Measured values: publication PMC3915751

Test system: T1, BaeR (Erwinia amylovora Ea1189 (primers from CFBP1430 genome)), ORF:3df56c72
T1 sequence: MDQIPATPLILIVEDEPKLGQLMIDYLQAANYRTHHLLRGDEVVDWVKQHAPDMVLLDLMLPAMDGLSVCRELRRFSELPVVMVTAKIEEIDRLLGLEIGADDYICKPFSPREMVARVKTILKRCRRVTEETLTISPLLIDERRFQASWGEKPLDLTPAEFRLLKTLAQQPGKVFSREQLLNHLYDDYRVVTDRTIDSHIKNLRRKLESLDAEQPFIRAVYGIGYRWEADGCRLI
Assay: EMSA
Conditions: 50 mM Tris-HCl pH 7.5, 1 mM DTT, 500 mM MgCl2, 100 mM EDTA, 10 mM NaCl ([…], room temperature 30 min

For “TGGCTGGCAACACTGAAGCCGCCCAGGCTCAGGCCGATGAGTAAAGGGAGCAGTTTGTTCATTTGCATTCCTTGTAGTGCAGCAAAATTGTTATGGTAGCGTTGACGCAGACCAAAAATTGTCGCCGATGATAGCAGAGACTCCGGATCAGGTAAGTTGGCTGAAAGTGCCATCCTCCTTTTAATTTACTTAAATACTTCATCAAGAACCAGACATCCGGCTGATTACTATTGAACTAAACGTTTTCGCCATTATTTCAGGAGATACAGTGATGACCGCAGTGACCAATTA (double strand) [tolC upstream region (291 bp)]”, the binding was “no binding”.
In the case of “TGTTTGGTATTTCGTGCCATAGCGGTATGATTTACAACGCTTCAGACTTACATACATTTGCGAATGTATGTACTATAGCACGACTAAAATTTAAACGCAGCAGTGGGTTTGTAATCCATTGAACAATCGATATCGGACATTCGAGGTTTATTTATGAACAAAAACAGAGGGTTAACGCCTCTGGCGGCCGTTCTGATGCTTTCAG (double strand) [acrAB upstream region (205 bp)]”, the binding is reported as “binds more weakly”.
